Measurements reported in patent US20210277109A1 (SYSTIMMUNE, published 2021).
Blank lines part the entries; values can stand above or below the binder they belong to.

Assays:
Human ROR1-CHO cells = biological target: T1, Human ROR1-CHO cells (human, UniProt Q01973); test: FACS; BCC supernatant
T1 construct: expressed on the surface of CHO cells; also called human ROR1 on CHO cells

Human ROR2 [1] = biological target: T2, Human ROR2 (human, UniProt Q01974); test: ELISA, direct coat; BCC supernatant
T2 sequence (Q01974 34-403 limits assumed): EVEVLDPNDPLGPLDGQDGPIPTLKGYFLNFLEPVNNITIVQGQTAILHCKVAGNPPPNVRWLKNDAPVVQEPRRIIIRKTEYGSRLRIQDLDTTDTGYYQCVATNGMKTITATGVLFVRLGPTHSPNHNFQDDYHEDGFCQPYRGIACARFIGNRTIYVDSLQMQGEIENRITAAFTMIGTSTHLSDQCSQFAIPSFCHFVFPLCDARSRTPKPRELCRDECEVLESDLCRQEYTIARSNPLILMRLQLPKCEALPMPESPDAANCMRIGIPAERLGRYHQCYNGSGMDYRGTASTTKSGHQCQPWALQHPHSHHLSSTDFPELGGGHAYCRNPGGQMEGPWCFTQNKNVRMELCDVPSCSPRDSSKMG

[2] = biological target: T3, human ROR1 'Frizzled-Kringle domain' (human, UniProt Q01973); test: ELISA, direct coat; BCC supernatant
T3 construct: used plain or biotinylated
T3 sequence (Q01973 165-406 limits assumed): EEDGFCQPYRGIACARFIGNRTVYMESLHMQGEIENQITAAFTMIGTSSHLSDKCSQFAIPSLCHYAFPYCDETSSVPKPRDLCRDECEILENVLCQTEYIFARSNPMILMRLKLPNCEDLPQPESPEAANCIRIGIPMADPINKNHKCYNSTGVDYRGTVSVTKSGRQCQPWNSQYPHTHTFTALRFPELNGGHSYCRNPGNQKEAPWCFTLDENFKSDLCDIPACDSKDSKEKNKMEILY

[3] = biological target: T4, human ROR1 'Ig-Frizzled domain' (human, UniProt Q01973); test: ELISA, direct coat; BCC supernatant
T4 construct: used plain or biotinylated
T4 sequence (Q01973 30-305 limits assumed): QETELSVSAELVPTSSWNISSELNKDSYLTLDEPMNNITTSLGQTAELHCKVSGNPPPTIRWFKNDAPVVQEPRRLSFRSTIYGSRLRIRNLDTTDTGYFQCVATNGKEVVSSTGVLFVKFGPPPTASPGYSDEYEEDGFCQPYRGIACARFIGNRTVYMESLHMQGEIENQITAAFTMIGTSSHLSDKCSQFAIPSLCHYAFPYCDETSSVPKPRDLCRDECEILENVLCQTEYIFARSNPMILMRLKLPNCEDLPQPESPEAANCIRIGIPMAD

[4] = biological target: T5, recombinant human ROR1 extracellular domain protein (human, UniProt Q01973 30-406); test: ELISA, direct coat; BCC supernatant
T5 construct: extracellular domain; Analyte in solution in the Octet assay; also called human ROR1 ECD
T5 sequence (Q01973 30-406): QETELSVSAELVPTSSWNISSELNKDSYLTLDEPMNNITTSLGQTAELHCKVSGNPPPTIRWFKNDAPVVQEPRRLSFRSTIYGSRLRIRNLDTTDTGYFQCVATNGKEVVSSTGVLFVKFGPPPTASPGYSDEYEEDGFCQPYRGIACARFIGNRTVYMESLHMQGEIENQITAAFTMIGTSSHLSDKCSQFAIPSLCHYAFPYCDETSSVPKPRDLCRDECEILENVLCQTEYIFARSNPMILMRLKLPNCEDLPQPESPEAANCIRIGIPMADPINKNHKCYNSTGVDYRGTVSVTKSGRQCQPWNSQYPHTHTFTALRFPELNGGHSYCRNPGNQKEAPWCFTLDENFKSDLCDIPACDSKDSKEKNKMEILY

[5] = biological target: mouse ROR1 (serum titer ELISA antigen) (mouse, UniProt Q9Z139 30-403, limits assumed); test: ELISA, direct coat; BCC supernatant
Chain of mouse ROR1 (serum titer ELISA antigen) (Q9Z139 30-403 limits assumed): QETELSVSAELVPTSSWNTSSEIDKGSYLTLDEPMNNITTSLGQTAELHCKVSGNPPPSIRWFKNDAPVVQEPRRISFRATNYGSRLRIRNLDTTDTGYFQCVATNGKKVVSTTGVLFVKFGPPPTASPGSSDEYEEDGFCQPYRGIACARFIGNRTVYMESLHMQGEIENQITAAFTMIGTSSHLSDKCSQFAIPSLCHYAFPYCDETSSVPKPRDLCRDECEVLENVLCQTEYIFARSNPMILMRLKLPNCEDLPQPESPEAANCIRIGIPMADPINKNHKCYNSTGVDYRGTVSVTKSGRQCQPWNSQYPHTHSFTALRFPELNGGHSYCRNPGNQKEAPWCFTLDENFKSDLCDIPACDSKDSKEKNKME

[6] = biological target: T3, human ROR1 'Frizzled-Kringle domain'; test: ELISA, biotinylated antigen on avidin plate; BCC supernatant
[7] = biological target: T4, human ROR1 'Ig-Frizzled domain'; test: as above
Human ROR2 [8] = biological target: T2, Human ROR2; test: Octet
[9] = biological target: T3, human ROR1 'Frizzled-Kringle domain'; test: Octet
[10] = biological target: T5, recombinant human ROR1 extracellular …; test: Octet, bi-valent binding to human ROR1
[11] = biological target: T5, recombinant human ROR1 extracellular …; test: Octet, mono-valent binding to human ROR1
Text: The heavy and light chain expression plasmids generated from each well were transiently co-transfected to produce rabbit/human chimeric antibodies. Recombinant antibody supernatants were confirmed to contain anti-ROR1 antibodies using bio-layer interferometry analysis on a ForteBio Octet Red 96 instrument. Anti-human Fc biosensors (Pall ForteBio) were used to capture antibodies in the supernatants. Association to ROR1 was observed by real-time interferometry by placing the biosensors in wells containing recombinant human ROR1 extracellular domain protein. Dissociation was measured after transfer of the biosensors into wells containing 10× kinetics buffer (Pall ForteBio). The software provided by the manufacturer was used to analyze the interferometry data.

[12] = biological target: T5, recombinant human ROR1 extracellular …; test: Octet, monovalent binding to human ROR1

T1 sequence (Q01973 30-937 limits assumed): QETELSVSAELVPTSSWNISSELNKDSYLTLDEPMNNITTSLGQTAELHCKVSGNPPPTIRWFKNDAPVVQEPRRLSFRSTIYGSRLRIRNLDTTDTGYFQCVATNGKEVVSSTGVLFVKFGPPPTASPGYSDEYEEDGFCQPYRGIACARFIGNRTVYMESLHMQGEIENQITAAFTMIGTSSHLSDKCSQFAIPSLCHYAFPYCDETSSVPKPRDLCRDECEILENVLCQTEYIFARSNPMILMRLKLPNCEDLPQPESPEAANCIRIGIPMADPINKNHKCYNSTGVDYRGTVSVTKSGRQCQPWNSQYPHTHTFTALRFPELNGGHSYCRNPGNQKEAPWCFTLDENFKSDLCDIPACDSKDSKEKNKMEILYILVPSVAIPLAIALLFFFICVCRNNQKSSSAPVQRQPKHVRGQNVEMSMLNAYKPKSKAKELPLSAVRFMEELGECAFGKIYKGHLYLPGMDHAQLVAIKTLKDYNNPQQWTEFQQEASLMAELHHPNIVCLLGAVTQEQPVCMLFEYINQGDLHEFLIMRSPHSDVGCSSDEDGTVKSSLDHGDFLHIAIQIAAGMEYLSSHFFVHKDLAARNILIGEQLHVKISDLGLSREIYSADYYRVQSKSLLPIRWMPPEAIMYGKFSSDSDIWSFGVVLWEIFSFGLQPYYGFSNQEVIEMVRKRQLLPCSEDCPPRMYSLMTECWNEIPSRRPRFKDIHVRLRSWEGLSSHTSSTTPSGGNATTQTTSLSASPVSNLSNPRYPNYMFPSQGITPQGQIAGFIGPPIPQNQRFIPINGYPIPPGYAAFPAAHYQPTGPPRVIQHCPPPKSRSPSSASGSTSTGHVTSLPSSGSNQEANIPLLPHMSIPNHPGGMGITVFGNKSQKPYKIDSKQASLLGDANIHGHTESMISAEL

B2: 323H7 (antibody, V domains shown)
VH: QEQLKESGGGLVTPGGTLTLTCTASGFTISRYHMTWVRQAPGKGLEWIGHIYVNNDDTDYASWAKGRFTISKTSTTVDLKITSPTTEDTATYFCARLDVGGGGAYIGDIWGQGTLVTVSS
VL: QAVVTQTPSSVSAAVGGTVTISCQSSQSVYNNNDLAWYQQKPGQPPKLLIYYASTLASGVSSRFKGSGSGTQFTLAISDLECDDSATYYCAGGYDTDGLDTFAFGGGTEVEVK
notes: chimeric counterpart m3; also called rabbit IgG of BCC well 323H7
FACS MFI (Human ROR1-CHO cells): 90 MFI
ELISA OD450 (Human ROR2 [1]): 0.18 OD450
ELISA OD450 [2]: 0.16 OD450
ELISA OD450 [3]: 1.67 OD450
ELISA OD450 [4]: 1.82 OD450
ELISA OD450 [5]: 0.2 OD450
binding result [5]: no binding
ELISA OD450 [6]: 0.16 OD450
ELISA OD450 [7]: 1.78 OD450

B3: 324C6 (antibody, V domains shown)
VH: QSLEESGGRLVTPGTPLTLTCTASGFSLSRYYMTWVRQAPGKGLEWIGTIYTSGSTWYASWTKGRFTISKTSTTVDLKITSPTTEDTATYFCARSYYGGDKTGLGIWGPGTLVTVSS
VL: DVVMTQTPASVEAAVGGTVTIKCQASQSIDSWLSWYQQKPGQPPKLLIYQASTLASGVSSRFKGSGSGTEFTLTISDLECADAATYYCQCAYGVSGTSSYLYTFGGGTEVEVK
notes: chimeric counterpart m7; also called rabbit IgG of BCC well 324C6
ELISA OD450 (Human ROR2 [1]): 0.17 OD450

B8: 226E12 humanized antibody (antibody, human IgG1, kappa, V domains shown)
VH: EVQLLESGGGLVQPGGSLRLSCAASGFSLSNYYMSWVRQAPGKGLEWIGAINADSDNTWYPSWVKGRFTISRDNSKNTLYLQMNSLRAEDTAVYYCARSVSNNFAEYNIWGQGTLVTVSS
VL: DIQMTQSPSSLSASVGDRVTITCQASQRIYSYLAWYQQKPGKVPKLLIYRASTLASGVPSRFSGSGSGTDFTLTISSLQPEDVATYYCQQGASMVDVENMFGGGTKVEIKR
notes: Human gamma-1 and human kappa constant domains
koff [12]: 0.0415 s⁻¹

B9: 323H7 humanized antibody (antibody, human IgG1, kappa, V domains shown)
VH: EVQLLESGGGLVQPGGSLRLSCAASGFTISRYHMTWVRQAPGKGLEWIGHIYVNNDDTDYASSAKGRFTISRDNSKNTLYLQMNSLRAEDTATYFCARLDVGGGGAYIGDIWGQGTLVTVSS
VL: DIQMTQSPSSLSASVGDRVTITCQSSQSVYNNNDLAWYQQKPGKVPKLLIYYASTLASGVPSRFSGSGSGTDFTLTISSLQPEDVATYYCAGGYDTDGLDTFAFGGGTKVEIKR
notes: as for B8
koff [12]: 0.0007 s⁻¹

B10: 323D10 humanized antibody (antibody, human IgG1, kappa, V domains shown)
VH: EVQLVESGGGLVQPGGSLRLSCTASGFSLSRNAMNWVRQAPGKGLEYIGYISTSGTTFYANSVKGRFTISKDNTKNTVDLQMNSLRAEDTAVYYCARDYNYAMDIWGQGTLVTVSS
VL: AIDLTQSPSTLSASVGGTITINCQASESISSWLAWYQQKPGKAPKLLIYETSKLASGVPSRFSGSGSGTEFTLTISSLQPDDFATYYCQSYYRINNIGYDNAFGGGTKVEIKR
notes: as for B8
koff [12]: 0.00424 s⁻¹

B12: 324C6 humanized antibody (antibody, human IgG1, kappa, V domains shown)
VH: QSLVESGGGLVQPGGSLRLSCTASGFSLSRYYMTWVRQAPGKGLEWIGTIYTSGSTWYASWTKGRFTISKDNTKNTVDLQMNSLRAEDTAVYYCARSYYGGDKTGLGIWGQGTLVTVSS
VL: DIQMTQSPSTLSASVGDRVTITCQASQSIDSWLSWYQQKPGKAPKLLIYQASTLASGVPSRFSGSGSGTEFTLTISSLQPDDFATYYCQSAYGVSGTSSYLYTFGGGTKVEIKR
notes: as for B8
koff [12]: 0.0403 s⁻¹

More lines, now with the values ahead:

FACS MFI (Human ROR1-CHO cells): 190 MFI
ELISA OD450 (Human ROR2 [1]): 0.18 OD450
ELISA OD450 [2]: 0.13 OD450
ELISA OD450 [3]: 2.46 OD450
ELISA OD450 [4]: 2.74 OD450
ELISA OD450 [5]: 0.21 OD450
binding result [5]: no binding
ELISA OD450 [6]: 0.13 OD450
ELISA OD450 [7]: 2.67 OD450
B1: 324C7 (antibody, V domains shown)
VH: QSVEESGGRLVTPGTPLTLTCTVSGFSLSGAGVSWVRQAPGKGLEWIGYIDSGATTYYASWAKGRFTISKASTTVDLKIASPTTEDTATYFCARGYYGMDPWGQGTLVTVSS
VL: DIVMTQTPASVEVAVGGTVTIKCQASQNIGSDLAWYQQKPGQPPKLLIYTTSNLASGVPSRFKGSGSGTGFTLTISDLECADAASYCCQGGYFSGRNIYGNAFGGGTEVVVK
notes: chimeric counterpart m4; also called rabbit IgG of BCC well 324C7

ELISA OD450 (Human ROR2 [1]): 0.17 OD450
ELISA OD450 [2]: 3.01 OD450
ELISA OD450 [3]: 2.77 OD450
ELISA OD450 [4]: 4 OD450
ELISA OD450 [5]: 4 OD450
ELISA OD450 [6]: 1.8 OD450
ELISA OD450 [7]: 0.22 OD450
B4: 338H4 (antibody, V domains shown)
VH: QSVEESGGRLVTPGTPLTLTCTVSGFSLSSYAMSWVRQAPGRGLEWIGIIYASGSTYYASWAKGRFTISKTSTTVDLKITSPTTEDTATYFCARIYDGMDLWGPGTLVTVSS
VL: DIVMTQTPASVSAAVGGTVTINCQASQNIYSYLSWYQQKPGQPPKRLIYLASTLASGVPSRFKSSGSGTEYTLTISDLECDDAATYYCQSNYNGNYGFGGGTEVEVK
notes: chimeric counterpart m8; also called rabbit IgG of BCC well 338H4

binding result (Human ROR2 [8]): no binding
binding result [9]: no binding
koff [10]: 0.00572 s⁻¹
B5: 324E2 chimeric rabbit/human IgG antibody (antibody, V domains shown)
VH: QSVEESGGRLVTPGTPLTLTCTVSGFSLSNNAITWVRQAPGKGLEYIGIISSSGTTYYASWAKGRFTISKTSSTTVDLKMTSLTTEDTATYFCAGAFSVWGPGTLVTVSS
VL: AQVLTQTPSSVSAAVGGTVTINCQSSQSVNNNDLAWFQQKPGQPPKRLIYWASKLASGVPSRFKGSGSGTQFILTISDLECDDAATYYCAGGYSGNIYGFGGGTEVEVKR
notes: Rabbit variable regions on human gamma-1 and human kappa constant domains

binding result (Human ROR2 [8]): no binding
binding result [9]: no binding
koff [10]: 0.00961 s⁻¹
B6: 323D10 chimeric rabbit/human IgG antibody (antibody, V domains shown)
VH: QSVEESGGRLVTPGTPLTLTCTVSGFSLSRNAMNWVRQAPGKGLEYIGYISTSGTTFYANWVKGRFTISKTSTTVDLKMTSLTTEDTATYFCARDYNYAMDIWGQGTLVTVSS
VL: AIDLTQTPASVEAAVGGTITINCQASESISSWLAWYQQKPGQRPKLLIYETSKLASGVPPRFSGSGSGTQFTLTISGVQCDDAATYYCQSYYRINNIGYDNAFGGGTEVEFKR
notes: as for B5

binding result (Human ROR2 [8]): no binding
koff [11]: 1.17e-08 s⁻¹
B7: 338H4 chimeric rabbit/human IgG antibody (antibody, V domains shown)
VH: B4 VH
VL: DIVMTQTPASVSAAVGGTVTINCQASQNIYSYLSWYQQKPGQPPKRLIYLASTLASGVPSRFKSSGSGTEYTLTISDLECDDAATYYCQSNYNGNYGFGGGTEVEVKR
notes: as for B5

koff [12]: 0.0061 s⁻¹
B11: 324E2 humanized antibody (antibody, human IgG1, kappa, V domains shown)
VH: QSVEESGGGLVQPGGSLRLSCTASGFSLSNNAITWVRQAPGKGLEYIGIISSSGTTYYASSAKGRFTISKDTSKNTVDLQMNSLRAEDTAVYYCAGAFSVWGQGTLVTVSS
VL: DIQMTQSPSSLSASVGDRVTITCQSSQSVNNNDLAWYQQKPGKAPKRLIYWASKLASGVPSRFSGSGSGTEFTLTISNLQPEDFATYYCAGGYSGNIYGFGGGTKVEIKR
notes: as for B8

koff [12]: 0.00238 s⁻¹
B13: 338H4 humanized antibody (antibody, human IgG1, kappa, V domains shown)
VH: EVQLVESGGGLVQPGGSLRLSCTASGFSLSSYAMSWVRQAPGRGLEWIGIIYASGSTYYASSAKGRFTISKDNTKNTVDLQMNSLRAEDTAVYYCARIYDGMDLWGQGTLVTVSS
VL: DIQMTQSPSSLSASVGDRVTINCQASQNIYSYLSWYQQKPGKVPKRLIYLASTLASGVPSRFSGSGSGTDYTLTISSLQPEDVATYYCQSNYNGNYGFGGGTKVEIKR
notes: as for B8

koff [12]: 0.0297 s⁻¹
B14: 330F11 humanized antibody (antibody, human IgG1, kappa, V domains shown)
VH: EVQLVESGGGLVQPGGSLRLSCAASGFSLNNYWMSWVRQAPGKGLEWIGTISSGAYTWFATWATGRFTISRDNSKNTLYLQMNSLRAEDTAVYYCARYSSTTDWTYFNIWGQGTLVTVSS
VL: DIQMTQSPSTLSASVGDRVTITCQASQSINNYLAWYQQKPGKAPKLLIYRASTLESGVPSRFSGSGSGTEFTLTISSLQPDDFATYYCQSYNGVGRTAFGGGTKVEIKR
notes: as for B8

FACS MFI (Human ROR1-CHO cells): 5 MFI
ELISA OD450 (Human ROR2 [1]): 0.25 OD450
ELISA OD450 [2]: 1.98 OD450
ELISA OD450 [3]: 0.28 OD450
ELISA OD450 [4]: 0.98 OD450
ELISA OD450 [5]: 4 OD450
ELISA OD450 [6]: 1.71 OD450
ELISA OD450 [7]: 0.15 OD450
B15: 330F11 (antibody, V domains shown)
VH: QSVEESGGRLVTPGTPLTLTCTVSGFSLNNYWMSWVRQAPGEGLEWIGTISSGAYTWFATWATGRFTISKTSTTVDLSITSPTTEDTATYFCARYSSTTDWTYFNIWGPGTLVTVSS
VL: DVVMTQTPASVEAAVGGTVTIKCQASQSINNYLAWYQQKPGQPPKLLIYRASTLESGVPSRFKGSGSGTQFTLTISDLECADAATYYCQSYNGVGRTAFGGGTEVEFK
notes: chimeric counterpart m9; also called rabbit IgG of BCC well 330F11

binding result (Human ROR2 [8]): no binding
B16: 324C6 chimeric rabbit/human IgG antibody (antibody, V domains shown)
VH: B3 VH
VL: DVVMTQTPASVEAAVGGTVTIKCQASQSIDSWLSWYQQKPGQPPKLLIYQASTLASGVSSRFKGSGSGTEFTLTISDLECADAATYYCQCAYGVSGTSSYLYTFGGGTEVEVKR
notes: as for B5
